Measured values: article doi:10.1101/276204 (bioRxiv, 2018)

B2: eGFP-CENP-E^2070-C (domain or fragment, Homo sapiens, UniProt Q02224 2070-2701, looked up)
chain: RQNHQVKPEKRLLSDGQQHLTESLREKCSRIKELLKRYSEMDDHYECLNRLSLDLEKEIEFQKELSMRVKANLSLPYLQTKHIEKLFTANQRCSMEFHRIMKKLKYVLSYVTKIKEEQHESINKFEMDFIDEVEKQKELLIKIQHLQQDCDVPSRELRDLKLNQNMDLHIEEILKDFSESEFPSIKTEFQQVLSNRKEMTQFLEEWLNTRFDIEKLKNGIQKENDRICQVNNFFNNRIIAIMNESTEFEERSATISKEWEQDLKSLKEKNEKLFKNYQTLKTSLASGAQVNPTTQDNKNPHVTSRATQLTTEKIRELENSLHEAKESAMHKESKIIKMQKELEVTNDIIAKLQAKVHESNKCLEKTKETIQVLQDKVALGAKPYKEEIEDLKMKLVKIDLEKMKNAKEFEKEISATKATVEYQKEVIRLLRENLRRSQQAQDTSVISEHTDPQPSNKPLTCGGGSGIVQNTKALILKSEHIRLEKEISKLKQQNEQLIKQKNELLSNNQHLSNEVKTWKERTLKREAHKQVTCENSPKSPKVTGTASKKKQITPSQCKERNLQDPVPKESPKSCFFDSRSKSLPSPHPVRYFDNSSLGLCPEVQNAGAESVDSQPGPWHASSGKDVPECKTQ

Key:
[1] = target: mCherry-CENP-F^2866-2990 (Homo sapiens) (UniProt P49454); experiment: AUC
[2] = target: mCherry-CENP-F^2922-2990 (Homo sapiens) (UniProt P49454); experiment: AUC
eGFP-CENP-E^2070-C = target: B2; experiment: SEC
BubR1:Bub3 complex = BubR1:Bub3 complex (human, UniProt O60566 1-1050; O43684 1-328); experiment: SEC
Chain of BubR1:Bub3 complex (O43684 whole entry, one chain of several): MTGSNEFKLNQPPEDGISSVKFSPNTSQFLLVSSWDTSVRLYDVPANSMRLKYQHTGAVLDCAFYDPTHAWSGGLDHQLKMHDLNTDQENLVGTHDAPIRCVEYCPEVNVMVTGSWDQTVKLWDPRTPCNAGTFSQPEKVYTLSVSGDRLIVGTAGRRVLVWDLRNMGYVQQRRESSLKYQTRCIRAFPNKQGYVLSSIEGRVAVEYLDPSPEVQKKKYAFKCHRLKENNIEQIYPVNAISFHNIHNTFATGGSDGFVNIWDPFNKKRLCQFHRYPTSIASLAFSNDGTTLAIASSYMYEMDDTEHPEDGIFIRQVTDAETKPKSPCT

mCherry-CENP-F^2866-2990 (from UniProt P49454 2866-2990) (domain or fragment)
stoichiometry N [1]: 2

mCherry-CENP-F^2922-2990 (from UniProt P49454 2922-2990) (domain or fragment)
stoichiometry N [2]: 2

B1: BubR1 pseudokinase domain (KinD, residues 705-1050) (domain or fragment, human, UniProt O60566 705-1050, looked up)
chain: EKLELTNETSENPTQSPWCSQYRRQLLKSLPELSASAELCIEDRPMPKLEIEKEIELGNEDYCIKREYLICEDYKLFWVAPRNSAELTVIKVSSQPVPWDFYINLKLKERLNEDFDHFCSCYQYQDGCIVWHQYINCFTLQDLLQHSEYITHEITVLIIYNLLTIVEMLHKAEIVHGDLSPRCLILRNRIHDPYDCNKNNQALKIVDFSYSVDLRVQLDVFTLSGFRTVQILEGQKILANCSSPYQVDLFGIADLAHLLLFKEHLQVFWDGSFWKLSQNISELKDGELWNKFFVRILNANDEATVSVLGELAAEMNGVFDTTFQSHLNKALWKVGKLTSPGALLFQ
binding result (eGFP-CENP-E^2070-C): binds

B2
binding result (BubR1:Bub3 complex): binds
